7 molecules from patent US20180086804A1 (COMMISSARIAT A L ENERGIE ATOMIQUE ET AUX ENERGIES …, published 2018) can be followed below.

No end group written: not given here.

The target of one assay is T1, HLA-DR11 (HLA-DRB1*11:01) (human).
T1 construct: mature; purified from homozygous EBV-transformed lymphoblastoid cells with antibody L243
In words: competition ELISA vs biotin-HA 306-318.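 Note: HLA and competitor incubated 24 to 72 h, maximal signal taken from wells lacking competitor, background from wells lacking HLA molecule.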 Background: In an ELISA, binding on a coated surface is turned into a signal by an enzyme label.
In turn, FAFVTDNTYTKHQIR-NH2 [CCNB1 269-283] had a relative affinity of 2190.
Same read-out and setting: under REVTGNMRAILIDWL-NH2 [CCNB1 195-209] stands 1180.
LSYTEESLLPVMQHL-NH2 [CCNB1 369-383] had a relative affinity of 45.
On the same count and under the same terms, the same measure for PEIGDFAFVTDNTYT-NH2 [CCNB1 264-278]: 1670.

The target in the next assay is T2, HLA-DR1 (HLA-DRB1*01:01) (human).
T2 construct: mature; class II HLA molecule purified from homozygous EBV-transformed lymphoblastoid cells with antibody L243
In words: competition ELISA vs biotin-HA 306-318.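 Note: HLA and competitor incubated 24 to 72 h, maximal signal taken from wells lacking competitor, background from wells lacking HLA molecule.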
Take QAFSDVILAVNDVDA-NH2 [CCNB1 144-158]: the relative affinity came to 1730.
On the same count and under the same terms, under FAFVTDNTYTKHQIR-NH2 [CCNB1 269-283] stands 1340; under REVTGNMRAILIDWL-NH2 [CCNB1 195-209], 55.
With PNLCSEYVKDIYAYL-NH2 [CCNB1 164-178], the relative affinity is 2830.
The same measure, in the same setting: under LSYTEESLLPVMQHL-NH2 [CCNB1 369-383] stands 212; under EKLSPEPILVDTASP-NH2 [CCNB1 113-127], 6000.
In turn, PEIGDFAFVTDNTYT-NH2 [CCNB1 264-278] displayed a relative affinity of 7000.

The target of a further assay is T3, HLA-DR4 (HLA-DRB1*04:01) (human).
T3 construct: mature; purified from homozygous EBV-transformed lymphoblastoid cells with antibody L243
Put plainly: competition ELISA vs biotin-HA 306-318.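 Note: HLA and competitor incubated 24 to 72 h, maximal signal taken from wells lacking competitor, background from wells lacking HLA molecule.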
Molecule QAFSDVILAVNDVDA-NH2 [CCNB1 144-158] returned a relative affinity of 12.
FAFVTDNTYTKHQIR-NH2 [CCNB1 269-283] yielded a relative affinity of 0.4.
In turn, REVTGNMRAILIDWL-NH2 [CCNB1 195-209] had a relative affinity of 260.
With PNLCSEYVKDIYAYL-NH2 [CCNB1 164-178], the relative affinity came to 527.
Same read-out and setting: the same measure for LSYTEESLLPVMQHL-NH2 [CCNB1 369-383]: 58; for EKLSPEPILVDTASP-NH2 [CCNB1 113-127]: 55.
Same read-out and setting: under PEIGDFAFVTDNTYT-NH2 [CCNB1 264-278] stands 2.

The target in the next assay is T4, HLA-DRB5 (HLA-DRB5*01:01) (human).
T4 construct: mature; purified from homozygous EBV-transformed lymphoblastoid cells with antibody L243
In words: competition ELISA vs biotin-HA 306-318.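 Note: HLA and competitor incubated 24 to 72 h, maximal signal taken from wells lacking competitor, background from wells lacking HLA molecule.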
Consider FAFVTDNTYTKHQIR-NH2 [CCNB1 269-283], for which the relative affinity was 42.
For REVTGNMRAILIDWL-NH2 [CCNB1 195-209], the relative affinity came out at 1410.
Still for that read-out and setting: under PNLCSEYVKDIYAYL-NH2 [CCNB1 164-178] stands 500; under LSYTEESLLPVMQHL-NH2 [CCNB1 369-383], 1380.
Still for that read-out and setting: under PEIGDFAFVTDNTYT-NH2 [CCNB1 264-278] stands 61.

In a further assay the target is T5, HLA-DR3 (HLA-DRB1*03:01) (human).
T5 construct: mature; purified from homozygous EBV-transformed lymphoblastoid cells with antibody L243
Put plainly: competition ELISA vs biotin-MT 2-16.
Molecule QAFSDVILAVNDVDA-NH2 [CCNB1 144-158] returned a relative affinity of 8.
On the same count and under the same terms, the same measure for FAFVTDNTYTKHQIR-NH2 [CCNB1 269-283]: 0.1.
With REVTGNMRAILIDWL-NH2 [CCNB1 195-209], the relative affinity amounted to 1.
Still for that read-out and setting: the same measure for EKLSPEPILVDTASP-NH2 [CCNB1 113-127]: 6; for PEIGDFAFVTDNTYT-NH2 [CCNB1 264-278]: 85.

The next assay addresses T6, HLA-DRB3 (HLA-DRB3*01:01) (human).
T6 construct: mature; purified from homozygous EBV-transformed lymphoblastoid cells with antibody L243
In words: competition ELISA vs biotin-LOL 191-210.
In the case of QAFSDVILAVNDVDA-NH2 [CCNB1 144-158], the relative affinity worked out at 18.
The same measure, in the same setting: the same measure for FAFVTDNTYTKHQIR-NH2 [CCNB1 269-283]: 34; for REVTGNMRAILIDWL-NH2 [CCNB1 195-209]: 20.
On the same count and under the same terms, the same measure for PNLCSEYVKDIYAYL-NH2 [CCNB1 164-178]: 53; for LSYTEESLLPVMQHL-NH2 [CCNB1 369-383]: 72; for EKLSPEPILVDTASP-NH2 [CCNB1 113-127]: 151.
With PEIGDFAFVTDNTYT-NH2 [CCNB1 264-278], the relative affinity came out at 19.

The target of the next assay is T7, HLA-DR15 (HLA-DRB1*15:01) (human).
T7 construct: mature; purified from homozygous EBV-transformed lymphoblastoid cells with antibody L243
Put plainly: competition ELISA vs biotin-A3 152-166.
Turning to QAFSDVILAVNDVDA-NH2 [CCNB1 144-158], the relative affinity was determined as 46.
As for FAFVTDNTYTKHQIR-NH2 [CCNB1 269-283], the relative affinity is 17.
Still for that read-out and setting: under REVTGNMRAILIDWL-NH2 [CCNB1 195-209] stands 30; under PNLCSEYVKDIYAYL-NH2 [CCNB1 164-178], 28; under LSYTEESLLPVMQHL-NH2 [CCNB1 369-383], 350.
On the same count and under the same terms, the same measure for PEIGDFAFVTDNTYT-NH2 [CCNB1 264-278]: 300.

Another assay has as its target T8, HLA-DR7 (HLA-DRB1*07:01) (human).
T8 construct: mature; purified from homozygous EBV-transformed lymphoblastoid cells with antibody L243
In words: competition ELISA vs biotin-YKL.
As for FAFVTDNTYTKHQIR-NH2 [CCNB1 269-283], the relative affinity worked out at 577.
The same measure, in the same setting: the same measure for PNLCSEYVKDIYAYL-NH2 [CCNB1 164-178]: 73; for LSYTEESLLPVMQHL-NH2 [CCNB1 369-383]: 91.
With PEIGDFAFVTDNTYT-NH2 [CCNB1 264-278], the relative affinity was determined as 86.

In the next assay the target is T9, HLA-DR13 (HLA-DRB1*13:01) (human).
T9 construct: mature; purified from homozygous EBV-transformed lymphoblastoid cells with antibody L243
In words: competition ELISA vs biotin-B1 21-36.
In the case of REVTGNMRAILIDWL-NH2 [CCNB1 195-209], the relative affinity stood at 45.

The next assay has as its target T10, HLA-DRB4 (HLA-DRB4*01:01) (human).
T10 construct: mature; purified from homozygous EBV-transformed lymphoblastoid cells with antibody L243
In words: competition ELISA vs biotin-E2/E168.
Turning to REVTGNMRAILIDWL-NH2 [CCNB1 195-209], the relative affinity was 23.
Take PNLCSEYVKDIYAYL-NH2 [CCNB1 164-178]: the relative affinity turned out to be 40.
In turn, EKLSPEPILVDTASP-NH2 [CCNB1 113-127] registered a relative affinity of 231.

The target of another assay is T11, HLA-DP402 (HLA-DPB1*04:02) (human, UniProt P20036 29-222).
T11 construct: mature; purified from homozygous EBV-transformed lymphoblastoid cells with antibody B7/21
Put plainly: competition ELISA vs biotin-Oxy 271-287.
REVTGNMRAILIDWL-NH2 [CCNB1 195-209] showed a relative affinity of 791.
As for PNLCSEYVKDIYAYL-NH2 [CCNB1 164-178], the relative affinity is 625.
On the same count and under the same terms, the same measure for LSYTEESLLPVMQHL-NH2 [CCNB1 369-383]: 1; for EKLSPEPILVDTASP-NH2 [CCNB1 113-127]: 71.

Another assay deals with T12, HLA-DP401 (HLA-DPB1*04:01) (human, UniProt P20036 29-222).
T12 construct: mature; purified from homozygous EBV-transformed lymphoblastoid cells with antibody B7/21
Put plainly: competition ELISA vs biotin-Oxy 271-287.
As to QAFSDVILAVNDVDA-NH2 [CCNB1 144-158], the relative affinity came out at 51.
With REVTGNMRAILIDWL-NH2 [CCNB1 195-209], the relative affinity is 725.
The same measure, in the same setting: under PNLCSEYVKDIYAYL-NH2 [CCNB1 164-178] stands 274.
On the same count and under the same terms, the same measure for LSYTEESLLPVMQHL-NH2 [CCNB1 369-383]: 4; for EKLSPEPILVDTASP-NH2 [CCNB1 113-127]: 72.
